{"source": "paper PMC8310357", "biological_target": "Ostreolysin A6 (Pleurotus ostreatus) (UniProt P83467)", "sequence (P83467 whole entry)": "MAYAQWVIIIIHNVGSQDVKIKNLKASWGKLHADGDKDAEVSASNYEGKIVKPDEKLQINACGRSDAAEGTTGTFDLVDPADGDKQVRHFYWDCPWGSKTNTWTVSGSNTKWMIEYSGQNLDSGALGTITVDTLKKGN", "data": [{"substance": "Δ48EryB (erylysin B) (natural protein)", "values": [{"measurement": "haemolysis of bovine erythrocytes, aegerolysin/MACPF-protein 12.5/1, 25 °C; against OlyA6/PlyB", "result": 90, "unit": "% lower"}]}]}
